US20220177587A1, “METHODS AND USES OF VARIANT CD80 FUSION PROTEINS AND RELATED CONSTRUCTS” (Alpine Immune Sciences, Inc., priority 2018, published 2022)
Like-named read-outs stand apart in the source and are kept apart here. One block for each substance: values may come before it.

Columns and labels:
CD28 (human) [1] = biological target: CD28 (human) (UniProt P10747); test: flow cytometry, Jurkat cells (CD28)
human CTLA-4 (human) [2] = biological target: human CTLA-4 (human) (UniProt P16410); test: flow cytometry, CHO cells stably expressing CTLA4
CD28 (human) [3] = biological target: CD28 (human) (UniProt P10747)
PD-L1 (human) [4] = biological target: PD-L1 (human) (UniProt Q9NZQ7); test: flow cytometry, CHO cells stably expressing PD-L1
CD28 (human) [5] = biological target: CD28 (human) (UniProt P10747); remark: listed apart in the source
PD-L1 (human) [6] = biological target: PD-L1 (human) (UniProt Q9NZQ7)
Target sequence in this assay (Q9NZQ7 19-290): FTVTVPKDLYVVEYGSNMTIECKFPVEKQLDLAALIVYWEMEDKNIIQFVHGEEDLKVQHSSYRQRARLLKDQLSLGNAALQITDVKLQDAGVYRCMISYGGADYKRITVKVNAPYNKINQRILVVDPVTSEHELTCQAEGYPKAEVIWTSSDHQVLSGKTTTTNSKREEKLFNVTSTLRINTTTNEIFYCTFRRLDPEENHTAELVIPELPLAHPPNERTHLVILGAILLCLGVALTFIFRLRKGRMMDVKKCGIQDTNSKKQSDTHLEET

CD28 (human) [7] = biological target: CD28 (human) (UniProt P10747); test: flow cytometry, HEK293 cells transfected with full-length human CD28, PE anti-human Fc
CD28 (human) [8] = biological target: CD28 (human) (UniProt P10747); remark: listed apart in the source
PD-L1 (human) [9] = biological target: PD-L1 (human) (UniProt Q9NZQ7); remark: listed apart in the source
Target sequence in this assay (Q9NZQ7 19-290): as above

CD28 (human) [10] = biological target: CD28 (human) (UniProt P10747); remark: listed apart in the source
PD-L1 (human) [11] = biological target: PD-L1 (human) (UniProt Q9NZQ7); remark: listed apart in the source
Target sequence in this assay (Q9NZQ7 19-290): as above

PD-L1 (human) [12] = biological target: PD-L1 (human) (UniProt Q9NZQ7); test: flow cytometry, HEK293 cells transfected with full-length human PD-L1, PE anti-human Fc
Target sequence in this assay (Q9NZQ7 19-290): as above

human CTLA-4 (human) [13] = biological target: human CTLA-4 (human) (UniProt P16410); test: flow cytometry, HEK293 cells transfected with full-length human CTLA-4, PE anti-human Fc
Target sequence in this assay (P16410 36-223): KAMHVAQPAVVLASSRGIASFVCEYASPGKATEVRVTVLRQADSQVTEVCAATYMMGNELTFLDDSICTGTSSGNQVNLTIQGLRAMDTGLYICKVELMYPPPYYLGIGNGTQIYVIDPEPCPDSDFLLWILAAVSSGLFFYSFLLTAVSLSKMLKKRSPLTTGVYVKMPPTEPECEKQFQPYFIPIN

CD28 (human) [14] = biological target: CD28 (human) (UniProt P10747); remark: listed apart in the source
PD-L1 (human) [15] = biological target: PD-L1 (human) (UniProt Q9NZQ7); remark: listed apart in the source
Target sequence in this assay (Q9NZQ7 19-290): as the sequence (Q9NZQ7 19-290) above

PD-L1 (human) [16] = biological target: PD-L1 (human) (UniProt Q9NZQ7); test: flow cytometry, transfected Expi293F cells
Target sequence in this assay (Q9NZQ7 19-290): as above

human CTLA-4 (human) [17] = biological target: human CTLA-4 (human) (UniProt P16410); test: flow cytometry, transfected Expi293F cells
Target sequence in this assay (P16410 36-223): as the sequence (P16410 36-223) above

MFI at 66.7 nM (CD28 (human) [1]): 73.2
MFI at 66.7 nM (human CTLA-4 (human) [2]): 69.4
Relative Luminescence (RLU), Jurkat/IL2 reporter assay, at 100000 pM (CD28 (human) [3]): 965 RLU
MFI at 66.7 nM (PD-L1 (human) [4]): 96.4
Substance: Human IgG1 Isotype Control (antibody)

Jurkat/IL2 reporter RLU at 50 nM, K562/OKT3/PD-L1 aAPC (CD28 (human) [5]): 206 RLU
Jurkat/IL2 reporter RLU at 50 nM, K562/OKT3/PD-L1 aAPC (PD-L1 (human) [6]): 206 RLU
MFI at 66.6 nM (CD28 (human) [7]): 1620 MFI
Jurkat/IL2 reporter RLU at 50 nM, CHO/OKT3/PD-L1 aAPC (CD28 (human) [8]): 483 RLU
Jurkat/IL2 reporter RLU at 50 nM, CHO/OKT3 aAPC without PD-L1 (CD28 (human) [8]): 479 RLU
Jurkat/IL2 reporter RLU at 50 nM, CHO/OKT3/PD-L1 aAPC (PD-L1 (human) [9]): 483 RLU
Jurkat/IL2 reporter RLU at 50 nM, K562/OKT3/PD-L1 aAPC (CD28 (human) [10]): 566 RLU
Jurkat/IL2 reporter RLU at 50 nM, K562/OKT3/PD-L1 aAPC (PD-L1 (human) [11]): 566 RLU
MFI at 22.2 nM (PD-L1 (human) [12]): 1770 MFI
MFI at 66.6 nM (human CTLA-4 (human) [13]): 20700 MFI
IL-2 release, primary T cells + K562/OKT3/PD-L1, 100 nM (CD28 (human) [14]): 52
IL-2 release, primary T cells + K562/OKT3/PD-L1, 100 nM (PD-L1 (human) [15]): 52
Substance: WT CD80 IgV-Fc (inert) (Fc fusion)

MFI (PD-L1 (human) [16]): 110000
MFI (human CTLA-4 (human) [17]): 2200
Substance: CD80 R29D/Y31L/Q33H/K36G/M38I/T41A/M43R/M47T/L85R/K89N/A91T/F92P/K93V/R94L/I118V/T120S/I127T/T130A/K169E/H188D ECD-Fc (Fc fusion)
